These results are taken from US9113649B2, “Food additive comprising an amidase for detoxifying ochratoxin” (DuPont Nutrition Biosciences ApS, priority 2010, dated 2015).

The target in data set [1] is Aspergillus niger amidase 2 sig (full length 480 aa, intracellular fraction, SEQ ID NO: 1) (Aspergillus niger, UniProt A2R2V4). Conditions: pH 7. Here is the method:
The reaction contained 60 μl mops-NaOH (0.2M, pH7.0), 20 mM CaCl2, 20 mM EDTA, amidase 2 sig (0.46 μg protein) extracted from A. niger cell harboring the amidase gene, 2 μl 25 μg/ml OTA and water to a final volume of 120 μl. The reaction was performed at 37° C. for 30 min and stopped by adding 150 μl acetonitrile containing 0.2% acetic acid. OTA and its product OT-alpha (=ODα) were analyzed on RP-HPLC on C18 column with an injection of 5 μl. Positive control (PC) contained no additives other than the buffer the amidase and OTA. Blank contained only buffer and OTA.

Data set [2] in a line: OTA degradation as a function of amidase 2 mat concentration. In kind it is biochemical. Here is the method:
The amidase used was purified from the broth of transformant 13 (438aa protein referred to as amidase 2 mat).
Ochratoxin A (OTA) degrading activity of amidase 2 mat purified from the fermentation broth of A. niger harboring the amidase 2 gene as a function of its concentration is shown in FIG. 15. It can be seen from FIG. 15 that the degradation of OTA was amidase 2 mat concentration dependent. One can also see that after 30 min with an amidase 2 mat concentration of 160 ng/ml the OTA decreased by 83%. From the linear region of FIG. 15 the calculated specific activity for amidase 2 mat was 900 nanomole OTA hydrolyzed per min per mg protein at pH7.0 and 40° C. at an OTA concentration of 1 μg/ml reaction mixture. The reaction for FIG. 15 was performed in 0.1 Mops-NaOH (pH 7.0) and 40° C. for 30 min before it was stopped by adding equal volume of acetonitrile containing 0.2% acetic acid and analyzed on RP-HPLC on a C18 column as described in the Material and Method section.

Data set [3] can be described thus: degradation of OTA in milk by amidase 2 mat. Particulars: light milk; 47 ppb at start; 0.22 μg protein; 40° C., 2.5 hr. In kind it is biochemical. Here is the method: Light milk (1.5% fat, protein 3.4 g, carbohydrate 4.7 g Calcium 120 mg, Phosphorus 95 mg in 100 ml) from Aria Foods Amba (Aarhus, Denmark) 0.15 ml, 3 μl OTA (2.5 μg/ml), 7.5 μl purified amidase 2 mat (from the broth of A. niger harboring the amidase 2 gene) containing 0.22 μg protein were mixed and reacted at 40° C. for 2.5 hr. The OTA decreased from 47 ppb at start to undetectable level (<2 ppb) after 2.5 hr incubation. OTA analysis by HPLC was described in the materials and methods section above.

Data set [4] in a line: detoxification of OTA in corn-soy based feed by amidase 2 mat. In kind it is biochemical. Conditions: from 38 ppm, 20 hr incubation. The procedure: (§1) The reaction mixture in 1.5 ml eppendorf tubes (C1-3) comprised 60 mg corn flower, 200 μl Mops-NaOH (0.2 M pH7.0), 40 μl amidase 2 mixture (which was mixture of an equal volume of the broth of A. niger transformant having amdiase 2 gene 3, 4, 7, 8, 10, 11, 13, 14, and 15), 20 μl OTA (0.5 mg/ml). Total volume of the three components was 260 μl; final OTA was 38 μg/ml or 38 ppm (ppm, parts per million). Control: Tubes of Controls (C-4-6) were the same as C1-3 except that the amidase preparation (the broth) was replaced with water.
(§2) The reaction was performed at 30° C. with skaking for 20 hr before the addition of equal volume of acetonitrile 260 μl containing 0.2% acetic acid to stop the reaction and to extract the OTA. After centrifugation and filter, the filtrate was analyzed on HPLC.
The tests of amidase 2 mat with soy-corn based feed (whose composition is given in Table 3) contaminated with OTA was exactly as the test with corn flour, that is, tubes S1-3 (experimental) were with the broth while for tubes S 5-6 (controls) water replaced the broth. After 20 hr incubation, the OTA level was reduced from 38 ppm to 6.6 ppm, a reduction of 6 times or 82%.

A short description of data set [5]: sensitivity of OTA hydrolysis to CaCl2 and EDTA. In kind it is biochemical. Particulars: for inhibition of activity in the hydrolysis of OTA: 8 mM CaCl2. The procedure: One protease inhibitor cocktail (PIC) tablet (Roche Applied Science, Mannhein, Germany) was dissolved in 1.5 mL. milliQ water to obtain a 7× stock solution. For formamidase inhibition assay, instead of 100 μL milliQ water normally employed, 20 μL of 7×PIC stock solution and 80 μL of milliQ water were mixed with other components listed in formamidase activity assay section. For OTA degrading activity, 35 μL 7×PIC solution were mixed with 210 μL OTA 1 μg/mL and 5 μL enzyme solution. […] For controls, inhibitor solution is replaced either by milliQ water for formamidase activity assay or MES-NaOH pH7 buffer for OTA degrading activity.
Also it is known that the OTA degrading activity in the Amano™ lipase product is sensitive to EDTA.
[…] The reaction was performed at 37° C. for 30 min and stopped by adding 150 μl acetonitrile containing 0.2% acetic acid. OTA and its product OT-alpha (=ODα) were analyzed on RP-HPLC on C18 column with an injection of 5 μl. Positive control (PC) contained no additives other than the buffer the amidase and OTA. Blank contained only buffer and OTA.

Data set [6] is described as follows: detoxification of OTA in corn flour by amidase 2 mat. Conditions: from 38 ppm, 30° C., 20 hr, pH7.0. In kind it is biochemical. Here is the method:
as §1, §2

Data set [7] is classed as biochemical. Particulars: same concentration, optimum conditions, one hour. The procedure: The enzyme solution of Amidase 2 mat obtained after AEX was tested on ochratoxin B at the same concentration under optimum conditions for one hour. The degrading rate with ochratoxin B was 8% compared to OTA.

Sequence of Aspergillus niger amidase 2 sig (full length 480 aa, intracellular fraction, SEQ ID NO: 1) (A2R2V4 other isoform, or with tags, fused parts or gaps): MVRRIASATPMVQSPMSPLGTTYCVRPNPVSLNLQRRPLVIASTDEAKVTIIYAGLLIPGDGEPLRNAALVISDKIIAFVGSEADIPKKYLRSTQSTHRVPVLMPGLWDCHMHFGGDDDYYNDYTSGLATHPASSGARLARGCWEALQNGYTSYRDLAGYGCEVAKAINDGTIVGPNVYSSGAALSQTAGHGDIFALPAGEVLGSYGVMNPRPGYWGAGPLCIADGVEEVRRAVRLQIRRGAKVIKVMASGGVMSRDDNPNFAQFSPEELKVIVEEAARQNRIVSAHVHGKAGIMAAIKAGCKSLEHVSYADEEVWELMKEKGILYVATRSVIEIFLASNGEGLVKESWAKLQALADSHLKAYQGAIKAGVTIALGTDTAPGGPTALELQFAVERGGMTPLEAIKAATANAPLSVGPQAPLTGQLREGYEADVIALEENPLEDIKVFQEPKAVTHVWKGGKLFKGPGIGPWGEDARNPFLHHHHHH

Regarding `O=C(O)CN(CCN(CC(=O)O)CC(=O)O)CC(=O)O` [EDTA], the “inhibition of amidase 2 sig (OTA degradation)” value in data set [1] is “no inhibition”.

B1: amidase 2 mat: secreted mature 438 amino acid amidase 2 from A. niger, MW about 47 kDa, N-terminal 42 amino acids cleaved (protein)
chain: STDEAKVTIIYAGLLIPGDGEPLRNAALVISDKIIAFVGSEADIPKKYLRSTQSTHRVPVLMPGLWDCHMHFGGDDDYYNDYTSGLATHPASSGARLARGCWEALQNGYTSYRDLAGYGCEVAKAINDGTIVGPNVYSSGAALSQTAGHGDIFALPAGEVLGSYGVMNPRPGYWGAGPLCIADGVEEVRRAVRLQIRRGAKVIKVMASGGVMSRDDNPNFAQFSPEELKVIVEEAARQNRIVSAHVHGKAGIMAAIKAGCKSLEHVSYADEEVWELMKEKGILYVATRSVIEIFLASNGEGLVKESWAKLQALADSHLKAYQGAIKAGVTIALGTDTAPGGPTALELQFAVERGGMTPLEAIKAATANAPLSVGPQAPLTGQLREGYEADVIALEENPLEDIKVFQEPKAVTHVWKGGKLFKGPGIGPWGEDARNPFL
modifications: Aspergillus niger
notes: secreted mature 438 amino acid amidase 2 from A. niger, MW about 47 kDa, N-terminal 42 amino acids cleaved
In turn, B1 gave an OTA decrease in data set [2] (160 ng/ml amidase 2 mat, 30 min, pH 7.0, 40° C.) of 83%. In addition, the specific activity in data set [2] (pH7.0 and 40° C., OTA 1 μg/ml reaction mixture, calculated from linear region of FIG. 15) is 900 nanomole OTA hydrolyzed per min per mg protein. In addition, the OTA after incubation in data set [3] is < 2 ppb. In addition, the “OTA level after incubation” value in data set [4] was determined as 6.6 ppm. The “inhibition of activity in the hydrolysis of OTA” value in data set [5] (enzyme purified from the Amano™ lipase product) and in data set [5] (enzyme purified from the broth of transgenic A. niger) was “around 40%” throughout. Moreover, the “inhibition by extra EDTA” value in data set [5] (data not shown) is given as “inhibited”. For the same molecule, the “remaining OTA” value in data set [6] is listed as “less than 2 ppb”. In data set [7], the “degrading rate with ochratoxin B compared to OTA” value was 8%.
